Article PMC9886945
Where “and” joins values, the source holds several entries; their conditions need not be identical. Equal values may be shown once.

Tests used:
[1] = target: Mycobacterium tuberculosis RNA polymerase holoenzyme with the σ^B subunit (M. tuberculosis) (UniProt P9WGZ1); assay: SEC
[2] = target: Mycobacterium tuberculosis RNA polymerase holoenzyme with the σ^B subunit (M. tuberculosis) (UniProt P9WGZ1); assay: cryo-EM structure
[3] = target: Mycobacterium tuberculosis RNA polymerase holoenzyme with the σ^B subunit (M. tuberculosis) (UniProt P9WGZ1); assay: negative stain EM
[4] = target: Mycobacterium tuberculosis RNA polymerase core (M. tuberculosis) (UniProt P9WGZ1); assay: SEC

Mycobacterium tuberculosis RNA polymerase holoenzyme with the σ^B subunit, P9WGZ1;P9WGY9;P9WGY7;P9WGY5;P9WGI5
stoichiometry N [1]: 8
percent of oligomer particles that are octamers [2]: 80%
percent of oligomer particles that are tetramers [2]: 20%
stoichiometry N [2]: 8 and 4
RNAP concentration from which octamers form [3]: 0.1 µM
percent of molecules in oligomers after 24 h at 4 °C [3]: 86%
stoichiometry N [3]: 8

Mycobacterium tuberculosis RNA polymerase core (from UniProt P9WGZ1;P9WGY9;P9WGY7;P9WGY5) (complex)
stoichiometry N [4]: 2
